# T1: human ActRIIB-Fc protein (human, UniProt Q13705)
# T1 sequence: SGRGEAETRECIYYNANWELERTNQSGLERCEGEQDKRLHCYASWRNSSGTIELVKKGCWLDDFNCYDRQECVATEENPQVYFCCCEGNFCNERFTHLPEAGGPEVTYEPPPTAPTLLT
# B1: activin A (ligand)
# chain: GLECDGKVNICCKKQFFVSFKDIGWNDWIIAPSGYHANYCEGECPSHIAGTSGSSLSFHSTVINHYRMRGHSPFANLKSCCVPTKLRPMSMLYYDDGQNIIKKDIQNMIVEECGCS
# Experiments:
# human ActRIIB-Fc protein = molecular target: T1, human ActRIIB-Fc protein
# human ActRIIA-Fc protein = human ActRIIA-Fc protein (human, UniProt P27037)
# Sequence of human ActRIIA-Fc protein (P27037 20-135): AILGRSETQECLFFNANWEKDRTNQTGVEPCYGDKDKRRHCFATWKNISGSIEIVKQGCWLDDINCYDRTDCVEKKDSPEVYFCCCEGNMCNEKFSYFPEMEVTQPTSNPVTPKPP
binder,measurement,setting,value
B1,Kd,human ActRIIB-Fc protein,6.5 pM
same,Kd,human ActRIIA-Fc protein,5.3 pM

# From paper PMC5703284 (Proceedings of the National Academy of Sciences of the …, 2017)
